# Experimental data: publication PMC10303109
# Molecular target: SARS-CoV-2 spike RBD wild type (SARS-CoV-2 (Wuhan strain)) (UniProt P0DTC2)
# Experiment: filter binding
Sequence,Kd (11 Nap-dU in place of dT),Kd (11 Nap-dU (5-[N-(1-naphthylmethyl)carboxamide]-2'-deoxyuridine) in place of dT)
CTGUCGGUAAGGGAGCUAGUGUAUGCCCCUGAGUUGGGGAUAUCACCGACAG [AM047-0],0.02 nM,
TATCGAGCGTCCTGCCTTTGCGGAGGUGAACCUUACGUUCAACUGGAUCGUGUGUAGGUACACCGACAGCCACCCAGAAA [AM032-0],,0.78 nM
